Experimental data: US20220127366A1 (DREN BIO, published 2022)
Where two headings read alike, the source gives them in different places.

T1: human Dectin-1 (isoform not given) (human, UniProt Q9BXN2 1-247)
T1 chain: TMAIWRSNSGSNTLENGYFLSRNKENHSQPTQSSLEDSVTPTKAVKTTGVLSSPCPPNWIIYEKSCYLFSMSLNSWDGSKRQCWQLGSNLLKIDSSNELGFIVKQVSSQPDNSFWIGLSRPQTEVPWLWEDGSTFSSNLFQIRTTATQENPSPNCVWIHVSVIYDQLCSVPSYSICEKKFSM

T2: human CD20 (human, UniProt P11836 1-297)
T2 construct: whole, on cells; also called hCD20
T2 sequence (looked up): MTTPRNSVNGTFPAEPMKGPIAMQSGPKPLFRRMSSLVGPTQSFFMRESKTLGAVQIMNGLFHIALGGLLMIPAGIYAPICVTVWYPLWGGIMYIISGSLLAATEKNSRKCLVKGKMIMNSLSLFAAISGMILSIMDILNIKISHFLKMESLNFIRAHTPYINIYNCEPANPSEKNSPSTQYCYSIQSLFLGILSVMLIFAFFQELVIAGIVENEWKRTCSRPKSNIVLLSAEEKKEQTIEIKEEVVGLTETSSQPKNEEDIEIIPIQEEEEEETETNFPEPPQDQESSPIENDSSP


How the values were obtained:
[1] = target: T1, human Dectin-1 (isoform not given); assay: flow cytometry, human monocytes
[2] = target: cynomolgus monkey Dectin-1 (cynomolgus monkey); assay: flow cytometry, cynomolgus monkey monocytes
[3] = target: human Dectin-1 isoform A (human) (UniProt Q9BXN2); assay: flow cytometry, HEK-Blue hDectin-1a cells
[4] = target: human Dectin-1 isoform B (human) (UniProt Q9BXN2); assay: flow cytometry, HEK-Blue hDectin-1b cells
[5] = target: human Dectin-1 isoform A (human) (UniProt Q9BXN2); assay: flow cytometry, HEK293F hDectin-1a FL cells
[6] = target: cynomolgus monkey Dectin-1 (cynomolgus monkey); assay: flow cytometry, cynomolgus monkey monocytes; remark: listed apart in the source
[7] = target: T1, human Dectin-1 (isoform not given); assay: cell-based or functional assay
human CD20 = target: T2, human CD20; assay: flow cytometry, Raji cells
[8] = target: T1, human Dectin-1 (isoform not given); assay: flow cytometry, HEK 293 cells stably overexpressing human Dectin-1

Molecule	EC50 [1] [nM]	EC50 [3] [nM]	EC50 [4] [nM]	EC50 [5] [nM]	binding result (human CD20)	further results
anti-Dectin-1 antibody 259931 (commercial)	0.3	0.8	0.9	1.2	–	EC50 [2]: 16 nM; EC50 [6]: 16.5 nM
anti-Dectin-1 antibody GE2 (commercial)	1.4	1.9	12	2.4	–	–
anti-Dectin-1 antibody 15E2 (commercial) (antibody, V domains shown) VH: QWQLQQSGAELARPGASWKMSCKASGYTFTTYTMHWWKQRPGQGLEWIGYINPSSGYTNYNQKFKDKATLTADKSSSTASMQLSSLTSEDSAWYYCARERAVLVPYAMDYWGQGTSVTVSS VL: QIVLTQSPAVMSASPGEKWTITCTASSSLSYMHWFQQKPGTSPKLWLYSTSILASGVPTRFSGSGSGTSYSLTISRMEAEDAATYYCQQRSSSPFTFGSGTKLEIK	–	–	–	–	–	IFNg secretion in PBMC (fold change to isotype), immobilized antibody [7]: 1.6 fold change to isotype; IL6 secretion in PBMC (fold change to isotype), immobilized antibody [7]: 2.6 fold change to isotype; TNFa secretion in PBMC (fold change to isotype), immobilized antibody [7]: 3 fold change to isotype
2M24/RSV hIgG1 (fucosylated or afucosylated) (bispecific antibody, V domains shown) VH 1: QVQLVQSGAEVKKPGASVKVSCKSSGYTFTDYYIHWVRQAPGQGLEWMGWINPNSGDTNYAQKFQGRITMTRDTSISTAYLELSRLRSDDTAVFYCARNSGSYSFGYWGQGTLVTVSS VL 1: DIQMTQSPSSVSASVGDRVTITCRASQGISSWLAWYQQKPGKAPKLLIFGASSLQSGVPSRFSGSGSGTDFTLTVSSLQPEDFATYYCQQAYSFPFTFGPGTKVDIE VH 2: QVTLRESGPALVKPTQTLTLTCTFSGFSLSTSGMSVGWIRQPPGKALEWLADIWWDDKKDYNPSLKSRLTISKDTSANQVVLKVTNMDPADTATYYCARSMITNWYFDVWGAGTTVTVSS VL 2: DIQMTQSPSTLSASVGDRVTITCKCQLSVGYMHWYQQKPGKAPKLLIYDTSKLASGVPSRFSGSGSGTAFTLTISSLQPDDFATYYCFQGSGYPFTFGGGTKLEIK	–	–	–	–	no binding (tested: between 10 and 100 nM (about 60 nM))	–
2M24/RSV hIgG1 inert (bispecific antibody, V domains shown, also called 2M24/RSV with inert human IgG1 Fc) VH 1: QVQLVQSGAEVKKPGASVKVSCKSSGYTFTDYYIHWVRQAPGQGLEWMGWINPNSGDTNYAQKFQGRITMTRDTSISTAYLELSRLRSDDTAVFYCARNSGSYSFGYWGQGTLVTVSS VL 1: DIQMTQSPSSVSASVGDRVTITCRASQGISSWLAWYQQKPGKAPKLLIFGASSLQSGVPSRFSGSGSGTDFTLTVSSLQPEDFATYYCQQAYSFPFTFGPGTKVDIE VH 2: QVTLRESGPALVKPTQTLTLTCTFSGFSLSTSGMSVGWIRQPPGKALEWLADIWWDDKKDYNPSLKSRLTISKDTSANQVVLKVTNMDPADTATYYCARSMITNWYFDVWGAGTTVTVSS VL 2: DIQMTQSPSTLSASVGDRVTITCKCQLSVGYMHWYQQKPGKAPKLLIYDTSKLASGVPSRFSGSGSGTAFTLTISSLQPDDFATYYCFQGSGYPFTFGGGTKLEIK	–	–	–	–	no binding (tested: between 10 and 100 nM (about 60 nM))	–
Fab 2M24-mSA fusion protein (Fab, V domains shown, only the 2M24 VL is tied; also called Fab 2M24 fusion to monomeric streptavidin) VH: QVQLVQSGAEVKKPGASVKVSCKSSGYTFTDYYIHWVRQAPGQGLEWMGWINPNSGDTNYAQKFQGRITMTRDTSISTAYLELSRLRSDDTAVFYCARNSGSYSFGYWGQGTLVTVSS VL: DIQMTQSPSSVSASVGDRVTITCRASQGISSWLAWYQQKPGKAPKLLIFGASSLQSGVPSRFSGSGSGTDFTLTVSSLQPEDFATYYCQQAYSFPFTFGPGTKVDIE	–	–	–	–	–	EC50 [8]: 1.45 nM
